Laboratory results taken from paper PMC8163506, “A novel ATP dependent dimethylsulfoniopropionate lyase in bacteria that releases dimethyl sulfide and acryloyl-CoA” (eLife, 2021).

Tests used:
Assay in all cases: DMS production by GC, nonlinear fit of initial rates
Format in all cases: biochemical, Psychrobacter sp.
[1] = substrate: CC(C)(COP(=O)(O)OP(=O)(O)OC[C@H]1O[C@@H](n2cnc3c(N)ncnc32)[C@H](O)[C@@H]1OP(=O)(O)O)[C@@H](O)C(=O)NCCC(=O)NCCS; settings: co-substrates DMSP and ATP, pH 8.5, 40 °C
[2] = substrate: Nc1ncnc2c1ncn2[C@@H]1O[C@H](COP(=O)(O)OP(=O)(O)OP(=O)(O)O)[C@@H](O)[C@H]1O; settings: co-substrates DMSP and CoA, pH 8.5, 40 °C
[3] = substrate: C[S+](C)CCC(=O)[O-]; settings: co-substrates ATP and CoA, pH 8.5, 40 °C

B1: DddX (Psychrobacter sp.) (protein)
chain: LTGQIIEYTIKIQTIYTGNFKHKNGFLKMIERGIAMKKENLKILAKKAQTIAIVGANYRFATRVLLENLDKMDFTGTIYLVNPRYENIDGVRCYQSLLEIEDTIDVVVGLVNPQLMIQVASNASKINAKVLVIPGGGYGESGVEGQNIQNAILERAADSGMRIVGPNCMGYLNMHAQFTPYIGTLHRPLRPIKKGPVSIISQSGSVNDAFIASKLGISKIYSTGNEADVQMHDYLNLLAEDPETSVIILYIEAIRNHLSFLRALDLCSKNKKPVIAIKVGRTIKSAAVANAHSGALAGDYEIEKLFLEGHGVLFVEDIDQAVAVALLLSQPYLPTVNTVAALTVSGGQAGILLDLAEDYGVDFPDFSAVTNYEIASKLPELGGLSNPLDIWGKSSKDFSEVSNICLSSIVKDADIGIITVAIDAPIGQGDHEFDFTSIPAKDLASLRGNSDKPFLYFSHIQTEFDPRVESILDEAGIAVIQGSRNALVACRALFKYKEFLEKNNHTPIYSVEDLSIQKGLKLLHDNEGRKLLDESGFVSPREQVVTSLQEGVDYAESIGYPVVLKAQGLAHKTDVGGVALNIKSAAKLKKAWGKMEHLNSPYYLIQEMVTDGFETILAYRTDMNYGPVVIFGLGGIYTELFNEVVLAVPPITHKKAEQMVKSIPMLWKSIEGYRGNPALDLEALTASIVQMGETAMEKYEEIVEFEINPLSVRVKGVVALDVLASVKTTAAKEADAEEADVKKCSELV
notes: full length (2247 bp gene), pET-22b, C-terminal His tag, E. coli BL21(DE3); dimer in solution
Km [1]: 0.4 mM | Km [2]: 2.5 mM | Km [3]: 0.4 mM | kcat [3]: 0.7 s⁻¹
